The sequences below were run against T1, Fur (ferric uptake regulator) (Shewanella piezotolerans WP3) (UniProt B8CQZ2) (assay: EMSA). Settings: 40 mM KCl, 12.5 mM Tris pH 7.5, 125 uM MnCl2, 1.25 mM MgCl2, 5% glycerol, 0.5 mM DTT, 0.01% BSA, 50 ug/ml salmon sperm DNA, 20 C, 30 min; ~0.2 pmol probe and ….
T1 sequence: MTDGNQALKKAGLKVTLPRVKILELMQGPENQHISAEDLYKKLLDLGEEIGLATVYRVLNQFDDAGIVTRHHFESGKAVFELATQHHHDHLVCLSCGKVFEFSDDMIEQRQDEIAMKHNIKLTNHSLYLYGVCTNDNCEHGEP
For “TGACCTTAATCACATAAAGCATCTAAAACACCTGCTAAAAATTACGCTGTTAGTTAGCCTTAGAGGTGGAAATAAAATTCCACACACTAAATAAGGGTAAATGAGATTTGTTCTCAAACTAATTCCCTTTTTAGTGATGATTAAAAAACTATTGCAGGGACAAAAATGATGAAATTTTTCAACTTAAGCGCGACTTCAAAAGCGCTACTTACGGCAGGGGTGCTTTCGTTAGCAGTTTCTGGCTGTAGTGGC (double strand) [omcA (swp3277) promoter]”, the binding was “binds”.
“TTATTACGTGCAATAAGAAGCTTTAACTTTGCTGAGATAAACAATGAAAGAGGAGTTTCTATCAAACTTTAAATGAATGATACAGCTTGATTTGTTTGTGATCTTTTTGCTTTTGATGGTTACAGGTTTGTTAGTGTTGTGCGCGAGTTCACATTGACAATGTAAATACACGTAAAGAAGTATGAATAAAAACAATTCTCATTTATATTGCAGCCAATTATTAAATGTAGCTTTCATTTTTGGGGTTGGTTATGTCTTTTCAGGCGTCTT (double strand) [TonB receptor (swp5150) promoter]” was tested, and the binding was “binds”.
“CAGGCTGTAATTGACCTTTTTACACGCAGCAAATAACTGCTTTTTTTGCTGTTCATCAAGTAAAGAGATGAGGGTTCCCGGCACGTTACATTCCTTGGCTTGATAATAATCAAGAGGTGAAGTTTGCTATTCAAGATATAGTGCAAATGATAATCATTATTAATAAAAGTGCAACATATAAAGGGAGCGATTATGGAAGCGATAAGTCCTGCTTTTCGATGGATAAGCGTGATAGCGA (double strand) [Crp-like regulator (swp3806) promoter]” was tested, and the binding was “binds”.
For “ATAGAGGGGAGCCATAACGGCGAAGGTTACATGGAACTCACCGGCTACTAAGCCGTAACAACCACTCAAACATAAGCTTTATGAAGTATGTAATTGCATTCAAAAAGCAATAGATAAGAATAATTATCATTTACTAAGCTTATGAATATCTTGGATATTTAATGTAGCGCAAGCTAACATTTCGAGTGGACAAAATTCAAACAAGCTTCTAGTCTTTATTGGTAAATTTGAGAACTAGATCACCCCCTAAAAGTTGATCTTGGTCGAT (double strand) [napD (swp4456) promoter]”, the binding was “binds”.

— paper PMC3790847
